This assay concerns the target HIV-1 YU2 gp120 (HIV-1, UniProt P35961). The assay is described as follows: SPR, bivalent. Background: In SPR one partner is held on a chip, and binding of the other changes the refractive index at the surface.

HIV-1 YU2 gp120, sequence (P35961 32-671): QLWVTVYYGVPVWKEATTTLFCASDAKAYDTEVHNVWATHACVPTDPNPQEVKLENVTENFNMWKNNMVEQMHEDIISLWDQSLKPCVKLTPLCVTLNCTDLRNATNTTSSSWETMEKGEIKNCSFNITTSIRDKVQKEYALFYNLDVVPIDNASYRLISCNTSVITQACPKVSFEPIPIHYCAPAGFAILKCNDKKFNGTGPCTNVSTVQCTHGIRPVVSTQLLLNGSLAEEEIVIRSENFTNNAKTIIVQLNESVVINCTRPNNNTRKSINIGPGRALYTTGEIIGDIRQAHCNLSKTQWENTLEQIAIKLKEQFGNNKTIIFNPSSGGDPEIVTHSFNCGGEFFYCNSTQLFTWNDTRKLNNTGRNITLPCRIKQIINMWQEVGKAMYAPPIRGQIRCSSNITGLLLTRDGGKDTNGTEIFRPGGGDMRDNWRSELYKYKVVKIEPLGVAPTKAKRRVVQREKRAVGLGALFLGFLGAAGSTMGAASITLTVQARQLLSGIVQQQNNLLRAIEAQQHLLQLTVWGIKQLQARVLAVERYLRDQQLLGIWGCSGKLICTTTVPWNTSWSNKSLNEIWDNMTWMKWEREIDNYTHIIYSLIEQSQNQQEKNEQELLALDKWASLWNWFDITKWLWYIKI

B1: 8ANC195 IgG (antibody, V domains shown)
VH: QIHLVQSGTEVKKPGSSVTVSCKAYGVNTFGLYAVNWVRQAPGQSLEYIGQIWRWKSSASHHFRGRVLISAVDLTGSSPPISSLEIKNLTSDDTAVYFCTTTSTYDKWSGLHHDGVMAFSSWGQGTLISVSA
VL: DIQMTQSPSTLSASIGDTVRISCRASQSITGNWVAWYQQRPGKAPRLLIYRGAALLGGVPSRFSGSAAGTDFTLTIGNLQAEDFGTFYCQQYDTYPGTFGQGTKVEV
As to B1, the Kd was determined as 82 nM.

The values are drawn from patent US10421803 (dated 2019).
